Among the data in publication PMC7549790 are IL-10 secreted by RAW264.7 macrophages stimulated with 5~20 μg/ml rCsHscB for 12 h or 24 h (ELISA); highest values, retold here.

In the assay the target is Toll-like receptor 2 (mouse (endogenous in RAW264.7)) (UniProt Q9QUN7).
Chain of UniProt Q9QUN7 (Q9QUN7 25-784): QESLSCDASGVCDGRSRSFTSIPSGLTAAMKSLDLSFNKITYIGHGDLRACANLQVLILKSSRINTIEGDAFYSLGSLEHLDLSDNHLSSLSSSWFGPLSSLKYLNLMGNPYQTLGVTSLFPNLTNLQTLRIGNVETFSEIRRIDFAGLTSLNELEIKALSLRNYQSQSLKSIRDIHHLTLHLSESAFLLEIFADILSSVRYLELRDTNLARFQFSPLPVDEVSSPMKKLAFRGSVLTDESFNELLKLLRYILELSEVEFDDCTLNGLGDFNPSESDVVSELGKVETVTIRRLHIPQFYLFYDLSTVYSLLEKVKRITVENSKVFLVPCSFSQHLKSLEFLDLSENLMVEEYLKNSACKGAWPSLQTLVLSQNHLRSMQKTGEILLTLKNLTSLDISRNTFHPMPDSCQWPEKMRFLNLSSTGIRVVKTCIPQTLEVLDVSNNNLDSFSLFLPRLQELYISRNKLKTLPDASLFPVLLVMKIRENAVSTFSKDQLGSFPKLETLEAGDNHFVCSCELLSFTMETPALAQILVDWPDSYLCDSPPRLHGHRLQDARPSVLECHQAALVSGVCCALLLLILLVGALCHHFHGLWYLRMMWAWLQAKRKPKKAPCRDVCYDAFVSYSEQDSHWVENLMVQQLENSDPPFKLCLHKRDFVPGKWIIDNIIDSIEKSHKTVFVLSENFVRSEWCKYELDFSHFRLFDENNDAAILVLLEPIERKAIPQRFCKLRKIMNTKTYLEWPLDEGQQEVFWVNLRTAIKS

Regarding “recombinant Clonorchis sinensis molecular chaperone HscB (natural protein)”, the IL-10 secreted by RAW264.7 macrophages stimulated with 5~20 μg/ml rCsHscB for 12 h or 24 h (ELISA); highest at 20 μg/ml for 24 h (fold over DMEM-stimulated cells) is > 10.
